According to patent US7067277B1, “Chimeric G proteins and uses thereof” (H. Lundbeck A/S, priority 1999, dated 2006):

T1: r GALR3 (Rattus norvegicus, UniProt O88626)
T1 sequence (O88626 1-370): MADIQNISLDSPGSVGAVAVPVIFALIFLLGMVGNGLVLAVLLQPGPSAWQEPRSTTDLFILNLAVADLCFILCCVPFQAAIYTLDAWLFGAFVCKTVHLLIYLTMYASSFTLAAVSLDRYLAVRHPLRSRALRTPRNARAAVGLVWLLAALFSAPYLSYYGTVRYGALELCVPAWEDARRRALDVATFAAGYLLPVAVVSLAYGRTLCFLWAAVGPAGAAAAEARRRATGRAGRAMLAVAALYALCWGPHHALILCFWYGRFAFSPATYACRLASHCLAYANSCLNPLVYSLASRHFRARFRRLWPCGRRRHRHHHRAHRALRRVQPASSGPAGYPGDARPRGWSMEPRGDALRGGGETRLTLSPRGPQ


Legend:
Experiment in all cases: Calcium mobilization (FLIPR, Fluo-3) in transfected COS-7 cells
Assay type in all cases: cell-based
r GALR3 = molecular target: T1, r GALR3; settings: COS-7 cells transfected with the rat GALR3 receptor; n=4
Procedure: (§1) COS-7 cells were cultured in 225 cm^2 flasks in Dulbecco's Modified Eagle Medium (DMEM) with supplements (10% bovine calf serum, 4 mM glutamine, 100 units/ml penicillin and 100 μg/ml streptomycin) at 37° C., 5% CO2. Stock plates of COS-7 cells were trypsinized and split 1:6 every 3–4 days.
(§2) GPCR and chimeric G protein cDNAs were transiently transfected into COS-7 cells in 150 cm^2 flasks by the DEAE-dextran method (Cullen, 1987), using a total of 20 μg of DNA/˜7×10^6 cells. For evaluating the function of a single chimeric G protein, the standard cDNA transfection ratio was 1:1 (10 μg GPCR cDNA and 10 μg chimeric G protein cDNA). For evaluating the function of a mixture of chimeric G proteins, the standard cDNA transfection ratio was 8:1:1 (16 μg GPCR cDNA, 2 μg Gαq/z cDNA, 2 μg Gαq/s cDNA).
(§3) Twenty four hours after transient transfection, COS-7 cells were seeded into 96-well black wall microtiter plates coated with poly-D-lysine for assay the following day. Just prior to assay, culture medium was aspirated and cells were dye-loaded with 4 μM Fluo-3/0.01% pluronic acid in assay buffer composed of Hank's Balanced Salt Solution (138 mM NaCl, 5 mM KCl, 1.3 mM CaCl2, 0.5 mM MgCl2, 0.4 mM MgSO4, 0.3 mM KH2PO4, 0.3 mM Na2HPO4, 5.6 mM glucose) plus 20 mM HEPES (pH 7.4), 0.1% BSA and 2.5 mM probenicid (100 μl/well) for 1 hour in 5% CO2 at 37° C. After excess dye was discarded, cells were washed in assay buffer and layered with a final volume equal to 100 μl/well. Basal fluorescence was monitored in a fluorometric imaging plate reader (FLIPR™, Molecular Devices) with an excitation wavelength of 488 nm and an emission range of 500 to 560 nm. Laser excitation energy was adjusted so that basal fluorescence readings were approximately 10,000 relative fluorescent units. Cells were stimulated with agonists diluted in assay buffer (50 μl), and relative fluorescent units were measured at defined intervals (exposure=0.4 sec) over a 3 min period at room temperature. Maximum change in fluorescence was calculated for each well. Concentration-response curves derived from the maximum change in fluorescence were analyzed by nonlinear regression (Hill equation).

h 5HT4 = h 5HT4 (Homo sapiens, UniProt Q13639); settings: h 5HT4 + chimera in COS-7; agonist 5HT, max 100 μM
Sequence of h 5HT4 (Q13639 whole entry): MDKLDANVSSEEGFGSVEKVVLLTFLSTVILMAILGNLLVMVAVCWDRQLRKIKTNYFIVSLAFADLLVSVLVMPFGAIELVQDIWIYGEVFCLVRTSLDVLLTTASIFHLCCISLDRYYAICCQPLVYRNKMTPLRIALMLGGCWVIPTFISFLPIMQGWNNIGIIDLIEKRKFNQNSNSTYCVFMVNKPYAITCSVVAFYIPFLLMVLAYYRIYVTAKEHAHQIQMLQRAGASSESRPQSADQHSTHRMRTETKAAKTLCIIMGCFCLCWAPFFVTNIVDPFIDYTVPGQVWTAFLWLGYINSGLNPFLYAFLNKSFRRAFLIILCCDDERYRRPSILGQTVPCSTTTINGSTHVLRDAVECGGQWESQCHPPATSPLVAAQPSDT
Procedure: as §1, §2, §3

h GLP-1 = h GLP-1 (Homo sapiens, UniProt P43220); settings: h GLP-1 + chimera in COS-7; agonist GLP-1, max 10 μM
Sequence of h GLP-1 (P43220 24-463): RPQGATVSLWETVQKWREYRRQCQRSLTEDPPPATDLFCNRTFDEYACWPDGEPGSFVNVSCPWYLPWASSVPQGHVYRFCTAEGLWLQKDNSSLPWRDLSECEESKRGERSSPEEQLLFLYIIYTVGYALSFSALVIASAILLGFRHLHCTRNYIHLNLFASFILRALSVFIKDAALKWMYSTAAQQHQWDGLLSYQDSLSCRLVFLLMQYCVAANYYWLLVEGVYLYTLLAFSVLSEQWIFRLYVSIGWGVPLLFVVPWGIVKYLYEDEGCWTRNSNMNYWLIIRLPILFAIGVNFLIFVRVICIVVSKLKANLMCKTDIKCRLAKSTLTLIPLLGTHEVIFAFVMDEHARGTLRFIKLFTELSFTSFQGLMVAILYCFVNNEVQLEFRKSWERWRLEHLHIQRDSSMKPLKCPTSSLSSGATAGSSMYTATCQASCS
Procedure: as §1, §2, §3

h D5 = h D5 (Homo sapiens, UniProt P21918); settings: h D5 + chimera in COS-7; agonist DA, max 100 μM
Sequence of h D5 (P21918 whole entry): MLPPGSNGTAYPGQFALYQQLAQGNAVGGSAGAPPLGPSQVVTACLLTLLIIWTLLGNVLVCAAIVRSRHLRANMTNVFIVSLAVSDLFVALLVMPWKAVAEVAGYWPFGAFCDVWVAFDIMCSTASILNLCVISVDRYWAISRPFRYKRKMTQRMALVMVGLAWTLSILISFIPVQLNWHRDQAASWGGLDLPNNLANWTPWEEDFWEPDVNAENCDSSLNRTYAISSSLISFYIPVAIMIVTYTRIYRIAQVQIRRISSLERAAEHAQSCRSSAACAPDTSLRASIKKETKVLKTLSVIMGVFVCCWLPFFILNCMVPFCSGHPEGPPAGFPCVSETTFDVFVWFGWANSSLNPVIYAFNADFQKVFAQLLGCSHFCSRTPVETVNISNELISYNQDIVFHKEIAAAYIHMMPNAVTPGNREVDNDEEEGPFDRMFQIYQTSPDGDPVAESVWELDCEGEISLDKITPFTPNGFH
Procedure: as §1, §2, §3

h 5HT6 = h 5HT6 (Homo sapiens, UniProt P50406); settings: h 5HT6 + chimera in COS-7; agonist 5HT, max 100 μM
Sequence of h 5HT6 (P50406 whole entry): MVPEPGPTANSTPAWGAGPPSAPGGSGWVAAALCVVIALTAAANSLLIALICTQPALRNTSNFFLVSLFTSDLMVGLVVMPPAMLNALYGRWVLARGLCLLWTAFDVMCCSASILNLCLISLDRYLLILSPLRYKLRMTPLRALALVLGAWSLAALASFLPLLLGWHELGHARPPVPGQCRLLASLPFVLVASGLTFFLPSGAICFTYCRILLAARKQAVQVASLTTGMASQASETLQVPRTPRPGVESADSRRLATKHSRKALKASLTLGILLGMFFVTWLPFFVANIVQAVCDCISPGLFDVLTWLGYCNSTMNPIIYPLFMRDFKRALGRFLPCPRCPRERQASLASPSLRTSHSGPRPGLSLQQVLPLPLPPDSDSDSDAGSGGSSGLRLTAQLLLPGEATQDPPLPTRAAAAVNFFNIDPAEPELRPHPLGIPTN
Procedure: as §1, §2, §3

h 5HT7 = h 5HT7 (Homo sapiens, UniProt P34969); settings: h 5HT7 + chimera in COS-7; agonist 5HT, max 100 μM
Sequence of h 5HT7 (P34969 whole entry): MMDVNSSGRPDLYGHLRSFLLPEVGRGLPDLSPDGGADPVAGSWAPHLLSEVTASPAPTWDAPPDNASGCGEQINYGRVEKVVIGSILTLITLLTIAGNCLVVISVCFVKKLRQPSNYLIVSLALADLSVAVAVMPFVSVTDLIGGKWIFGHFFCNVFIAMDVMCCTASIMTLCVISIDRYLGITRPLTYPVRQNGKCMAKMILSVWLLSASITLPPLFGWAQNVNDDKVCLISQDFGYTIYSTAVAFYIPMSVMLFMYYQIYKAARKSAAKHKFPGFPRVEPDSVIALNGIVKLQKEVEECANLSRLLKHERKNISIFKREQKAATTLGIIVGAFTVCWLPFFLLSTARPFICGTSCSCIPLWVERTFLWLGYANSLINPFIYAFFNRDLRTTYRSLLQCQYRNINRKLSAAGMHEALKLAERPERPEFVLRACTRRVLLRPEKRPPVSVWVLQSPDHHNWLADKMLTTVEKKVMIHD
Procedure: as §1, §2, §3

h β2 adr = h β2 adr (Homo sapiens, UniProt P07550); settings: h β2 adr + chimera in COS-7; agonist NE, max 100 μM
Procedure: as §1, §2, §3

h D1 = molecular target: T2, h D1 (Homo sapiens, UniProt P21728)
T2 construct: expressed in transfected cells; host or cells: COS-7
T2 sequence (P21728 whole entry): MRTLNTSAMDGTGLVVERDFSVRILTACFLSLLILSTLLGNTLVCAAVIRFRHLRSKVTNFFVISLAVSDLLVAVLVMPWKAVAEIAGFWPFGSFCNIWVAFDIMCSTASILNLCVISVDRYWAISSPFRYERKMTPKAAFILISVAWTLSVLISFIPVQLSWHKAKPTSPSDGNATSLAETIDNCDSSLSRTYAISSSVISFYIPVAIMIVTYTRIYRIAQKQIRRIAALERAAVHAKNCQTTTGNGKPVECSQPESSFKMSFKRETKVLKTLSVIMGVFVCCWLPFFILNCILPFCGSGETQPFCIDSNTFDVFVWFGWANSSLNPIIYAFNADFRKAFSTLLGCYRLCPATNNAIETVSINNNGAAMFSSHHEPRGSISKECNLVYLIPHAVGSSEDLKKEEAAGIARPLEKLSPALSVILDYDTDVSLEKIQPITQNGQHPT
Procedure: as §1
For evaluating the function of a single chimeric G protein, the standard cDNA transfection ratio was 1:1 (10 μg GPCR cDNA and 10 μg chimeric G protein cDNA). For evaluating the function of a mixture of chimeric G proteins, the standard cDNA transfection ratio was 8:1:1 (16 μg GPCR cDNA, 2 μg Gαq/z cDNA, 2 μg Gαq/s cDNA).
as §3, with “Just prior to assay, culture medium was aspirated and cells were dye-loaded with 4 μM Fluo-3/0.01% pluronic acid in assay buffer composed of Hank's Balanced Salt Solution (138 mM NaCl, 5 mM KCl, 1.3 mM CaCl2, 0.5 mM MgCl2, 0.4 mM MgSO4, 0.3 mM KH2PO4, 0.3 mM Na2HPO4, 5.6 mM glucose) plus 20 mM HEPES (pH 7.4), 0.1% BSA and 2.5 mM probenicid (100 μl/well) for 1 hour in 5% CO2 at 37° C.” left out

[1] = h D1 + chimera in COS-7, agonist DA, max 100 μM

Row | Molecule | maximum signal produced by porcine galanin (r GALR3) | MAXIMAL SIGNAL (FLUORESCENCE UNITS) (h 5HT4) [fluorescence units] | MAXIMAL SIGNAL (FLUORESCENCE UNITS) (h GLP-1) [fluorescence units] | MAXIMAL SIGNAL (FLUORESCENCE UNITS) (h D5) [fluorescence units] | MAXIMAL SIGNAL (FLUORESCENCE UNITS) (h 5HT6) [fluorescence units] | MAXIMAL SIGNAL (FLUORESCENCE UNITS) (h 5HT7) [fluorescence units] | MAXIMAL SIGNAL (FLUORESCENCE UNITS) (h β2 adr) [fluorescence units] | MAXIMAL SIGNAL (FLUORESCENCE UNITS) (h D1; [1]) [fluorescence units] | MAXIMAL SIGNAL (FLUORESCENCE UNITS) (h D1; human D1 receptors in COS-7, 10 μg chimera cDNA and 10 μg receptor cDNA, 100 μM dopamine, Table 9 parallel comparison, mean of two experiments) [fluorescence units]
1 | C. elegans Gαq/i3(5): C. elegans Gαq with five C-terminal amino acids of Gαi3 (SEQ ID NO: 5) (protein, C. elegans) MACCLSEEAREQKRINQEIEKQLQRDKRNARRELKLLLLGTGESGKSTFIKQMRIIHGQGYSEEDKRAHIRLVYQNVFMAIQSMIRAMDTLDIKFGNESEELQEKAAVVREVDFESVTSFEEPYVSYIKELWEDSGIQECYDRRREYQLTDSAKYYLSDLRRLAVPDYLPTEQDILRVRVPTTGIIEYPFDLEQIIFRMVDVGGQRSERRKWIHCFENVTSIMFLVALSEYDQVLVECDNENRMEESKALFRTIITYPWFTNSSVILFLNKKDLLEEKILYSHLADYFPEYDGPPRDPIAAREFILKMFVDLNPDADKIIYSHFTCATDTENIRFVFAAVKDTILQHNLKECGLY | 2564 relative fluorescent units | – | – | – | – | – | – | – | –
2 | cGαq/s21: C. elegans Gαq with C-terminal Gαs tail of 21 amino acids (SEQ ID NO: 4) (protein, C. elegans) MACCLSEEAREQKRINQEIEKQLQRDKRNARRELKLLLLGTGESGKSTFIKQMRIIHGQGYSEEDKRAHIRLVYQNVFMAIQSMIRAMDTLDIKFGNESEELQEKAAVVREVDFESVTSFEEPYVSYIKELWEDSGIQECYDRRREYQLTDSAKYYLSDLRRLAVPDYLPTEQDILRVRVPTTGIIEYPFDLEQIIFRMVDVGGQRSERRKWIHCFENVTSIMFLVALSEYDQVLVECDNENRMEESKALFRTIITYPWFTNSSVILFLNKKDLLEEKILYSHLADYFPEYDGPPRDPIAAREFILKMFVDLNPDADKIIYSHFTCATDTENIRRVFNDCRDIIQRMHLRQYELL | – | 1731 | 3120 | 3385 | 1009 | 206 | 3513 | 9433 | –
3 | dGαq/z5: D. melanogaster Gαq chimera containing the five C-terminal amino acids of human Gαz (SEQ ID NO: 41) (protein, Drosophila melanogaster) MECCLSEEAKEQKRINQEIEKQLRRDKRDARRELKLLLLGTGESGKSTFIKQMRIIHGSGYSDEDKRGYIKLVFQNIFMAMQSMIKAMDMLKISYGQGEHSELADLVMSIDYETVTTFEDPYLNAIKTLWDDAGIQECYDRRREYQLTDSAKYYLKDLDRVAQPAYLPTEQDILRVRVPTTGIIEYPFDLEEIRFRMVDVGGQRSERRKWIHCFENVTSIIFLVALSEYDQILFESDNENRMEESKALFRTIITYPWFQNSSVILFLNKKDLLEEKIMYSHLVDYFPEYDGPQRDAITAREFILRMFVDLNPDSEKIIYSHFTCATDTENIRFVFAAVKDTILQSNLKYIGLC | – | – | – | – | – | – | – | – | 2149
4 | hGαq/s9: human Gαq with 9 C-terminal amino acids of Gαs (protein) MTLESIMACCLSEEAKEARRINDEIERQLRRDKRDARRELKLLLLGTGESGKSTFIKQMRIIHGSGYSDEDKRGFTKLVYQNIFTAMQAMIRAMDTLKIPYKYEHNKAHAQLVREVDVEKVSAFENPYVDAIKSLWNDPGIQECYDRRREYQLSDSTKYYLNDLDRVADPSYLPTQQDVLRVRVPTTGIIEYPFDLQSVIFRMVDVGGQRSERRKWIHCFENVTSIMFLVALSEYDQVLVESDNENRMEESKALFRTIITYPWFQNSSVILFLNKKDLLEEKIMYSHLVDYFPEYDGPQRDAQAAREFILKMFVDLNPDSDKIIYSHFTCATDTENIRFVFAAVKDTILQMHLRQYELL | – | 2309 | 4198 | 745 | 999 | 0 | 1439 | 5692 | –
5 | hGαq/s5: human Gαq with 5 C-terminal amino acids of Gαs (protein) MTLESIMACCLSEEAKEARRINDEIERQLRRDKRDARRELKLLLLGTGESGKSTFIKQMRIIHGSGYSDEDKRGFTKLVYQNIFTAMQAMIRAMDTLKIPYKYEHNKAHAQLVREVDVEKVSAFENPYVDAIKSLWNDPGIQECYDRRREYQLSDSTKYYLNDLDRVADPSYLPTQQDVLRVRVPTTGIIEYPFDLQSVIFRMVDVGGQRSERRKWIHCFENVTSIMFLVALSEYDQVLVESDNENRMEESKALFRTIITYPWFQNSSVILFLNKKDLLEEKIMYSHLVDYFPEYDGPQRDAQAAREFILKMFVDLNPDSDKIIYSHFTCATDTENIRFVFAAVKDTILQLNLKQYELL | – | 1709 | 189 | 0 | 98 | 0 | 43 | – | –
6 | human Gαq/i3(5): human Gαq with five C-terminal amino acids of Gαi3 (protein) MTLESIMACCLSEEAKEARRINDEIERQLRRDKRDARRELKLLLLGTGESGKSTFIKQMRIIHGSGYSDEDKRGFTKLVYQNIFTAMQAMIRAMDTLKIPYKYEHNKAHAQLVREVDVEKVSAFENPYVDAIKSLWNDPGIQECYDRRREYQLSDSTKYYLNDLDRVADPSYLPTQQDVLRVRVPTTGIIEYPFDLQSVIFRMVDVGGQRSERRKWIHCFENVTSIMFLVALSEYDQVLVESDNENRMEESKALFRTIITYPWFQNSSVILFLNKKDLLEEKIMYSHLVDYFPEYDGPQRDAQAAREFILKMFVDLNPDSDKIIYSHFTCATDTENIRFVFAAVKDTILQLNLKECGLY | 2084 relative fluorescent units | – | – | – | – | – | – | – | –
